Test system: MS2 coat protein
Assay: apparent KD of MS2 coat protein; designed switch direction (-1 OFF switch, 1 ON switch): -1; higher = weaker reporter binding
Outline: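 Designed RNA switches with common flanks were transcribed on Illumina chips by stalled E. coli RNA polymerase and titrated with SNAP-549-labelled MS2 coat protein, from 0.7 or 1.5 nM doubling to 3 µM, in Tris-HCl pH 7.5 buffer with KCl, MgCl2, BSA, DTT, tRNA and Tween-20. Steps lasted 0.8–1.5 h (lowest) to 10–20 min (highest). Titrations ran without input, with 200 uM small-molecule ligand, or with an oligonucleotide input. Normalised cluster fluorescence was curve-fitted, and apparent KD is the per-design median over clusters.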

[1] = Eterna round: R95, input ligand: microRNA oligo, concentration not stated
[2] = input ligand: microRNA oligo, concentration not stated
[3] = Eterna round: R95, input ligand: FMN 200 uM
[4] = Eterna round: R95, input ligand: none

| Sequence | apparent KD of MS2 coat protein (input ligand: FMN 200 uM) [nM] | apparent KD of MS2 coat protein (input ligand: none) [nM] | apparent KD of MS2 coat protein [1] [nM] | also measured |
| --- | --- | --- | --- | --- |
| ACCAGACAUGAGGAUCACCCAUGUCAGGAUAUUAUUCUACCUGAAGUUCGGGAUUGUGUGAGAAGGGACUGGGA [Eternabot (L2) Solution 86] (Eterna round: R97, puzzle: Exclusion 1) | 17.4 | 16.1 |  |  |
| AACCGUCGUCAGGAUAUUUGCCAGGAUUCUAGCGAAGAAGGGACGACAUGAGGAUCACCCAUGUUGGCCACUCG [EX6 B.26] (Eterna round: R97, puzzle: Exclusion 6) | 188 | 36.9 |  |  |
| GAUCACUGAGGAUAUACACAGAUACAAAGUAUCUGAUUGUGACAUGAGGAUCACCCAUGUAGAAGGCAGAGGUC [Omei Ex2 B6] (Eterna round: R97, puzzle: Exclusion 2) | 179 | 31.1 |  |  |
| GGUCUACAUGAGGAUCACCCAUGUCAGGAUAUCGUGUGUUUUUUUUCGGCCGCGCGUGCGAGAAGGGACGUCUU (puzzle: Exclusion 1) |  |  | 16.6 |  |
| UUUACCAGAGGAUAUGCGAAUAAAUAAAACUUUUUUUUUUAACAUGAGGAUCACCCAUGUAGAAGGCUGCAUUU [Ex2 #29] (Eterna round: R97, puzzle: Exclusion 2) | 25.5 | 28.2 |  |  |
| UUAAUAUAUGUAGGAUAUGCGUGGCGAAGCUAUGCAGAAGGACAUGAGGAUCACCCAUGUUCCAGCGUCCGCGUACGGAUGCAA [JL Eng1 1.21 mod 11] (Eterna round: R96, puzzle: Exclusion NG 1) | 16 | 13.3 |  | apparent KD of MS2 coat protein [2]: 12.3 nM |
| CUAGAUCUUCGGAUCUAGUACAUGAGGAUCACCCAUGUUACGAGCAGAUUUUCAUACAAGCUUUUUGCUCGUCUUAU [Sensor v3 - Turn-off variant 1 - 32] (puzzle: Sensor v3, turn-off variant 1) |  |  | 72.4 | apparent KD of MS2 coat protein [3]: 24.7 nM; apparent KD of MS2 coat protein [4]: 27.3 nM |
| CGGUCAUGAGGAUAUCGAGGUUAGUACAUGAGGAUCACCCAUGUUAUCCAGGUGUCGGUUCGAGAAGGCAUGUCCG [LRO-Ex5-12] (puzzle: Exclusion 5) |  |  | 287 |  |
| AUGAUACAUGAGGAUCACCCAUGUGAGGAUAUGAAGUUAUAAUACAUACUAUACAUCUUCAGAAGGCAUAUGUG [E1 S1 6/16] (Eterna round: R97, puzzle: Exclusion 1) | 229 | 109 |  |  |
| CCUAUGUGAGGAUAUCACUGGUCUUUUCAUUGGAUGAUUAGUGAGAAGGCACAUGAGGAUCACCCAUGUCGGUG [Ex4 - 3 - 52] (puzzle: Exclusion 4) |  |  | 34.6 |  |
| AUGUAGGAAGGAUAUGCGUCGGCAUGAAAUCCUUGUUGGCCACAUGAGGAUCACCCAUGUAGAAGGUUCACGUA [Eternabot (L2) Solution 10] (Eterna round: R97, puzzle: Exclusion 2) | 48.8 | 52.7 |  |  |
| GUCAUCACACAUGGGAUCAACAUGAGGAUCACCCAUGUUGUCAAGUUUUUUGCUCGUCUUAUAAUACGUUUGAUGAC [Mod-Jxc] (Eterna round: R97, puzzle: Sensor, turn-off variant 1) | 26.7 |  |  |  |
| GUCGUGCGGCUUUGCUGUACGAGUACAUGAGGAUCACCCAUGUAGGAUAUGGUUCGCUUUGCGUGCCAGAAGGGCGUGCGUUGG [Excl-NG3-LRO12] (Eterna round: R96, puzzle: Exclusion NG 3) | 31.3 | 31.1 |  | apparent KD of MS2 coat protein [2]: 21.6 nM |
| CACCCACAUGAGGAUCACCCAUGUGAGGAUAUGAUACUAUGUACUUCGGUACAUAGUAUCAGAAGGCACAGGUG [Ex1-3: 61] (puzzle: Exclusion 1) |  |  | 30.3 |  |
| AGUCGGCGAGGAUAUACAUGAGGAUCACCCAUGUGAUAUAGUGCACGCGUACGUGUACGUAGAAGGCGCUGACA [Mat - Exclusion 3 - Mod of JL D93] (puzzle: Exclusion 3) |  |  | 11.5 |  |
| GAAUCGACAGGAUAUACAUGAGGAUCACCCAUGUAGUCAGAGAUGAUACCUCAACCUAGUAGAAGGGUCAGCGG [Eternabot (L2) Solution 17] (Eterna round: R97, puzzle: Exclusion 3) | 45.5 | 25 |  |  |
| CUUUCUUGCAAGGAUAUGCAAUUUAUUAUUUAUGCAGAAGGUGCUACAUGAGGAUCACCCAUGUUUCUGGGUUU [JR_E6_Sub045] (puzzle: Exclusion 6) |  |  | 124 |  |
| ACAAGCAUUUAGUAAAUGGACAUGAGGAUCACCCAUGUGAGUCCGAAGAGAUAAGAUAUAUUGUCGGCUCGUCUUAU [AK-miRNA-r3-22] (Eterna round: R97, puzzle: Sensor, turn-off variant 1) | 55.9 | 94.8 |  |  |

| Sequence | apparent KD of MS2 coat protein (input ligand: FMN 200 uM) [nM] | apparent KD of MS2 coat protein (input ligand: none) [nM] | apparent KD of MS2 coat protein [1] [nM] | also measured |
| --- | --- | --- | --- | --- |
| AUACUCUUUGUGAGGAUAUCGUUUUCUUUACGGUUCGAGAAGGCACAUGAGGAUCACCCAUGUUUGACGUGAAU [JR_BMOE4_Sub094] (puzzle: Brourd's mod of Exclusion 4) |  |  | 21.2 |  |
| UGAGCUACAGGAUAUAUAUGGCGACCGUGAGGUCGAAGGUUACAUGAGGAUCACCCAUGUAGAAGGGUAGUUCU [Mat - Exclusion 2 - JL Mod - D17] (Eterna round: R97, puzzle: Exclusion 2) | 225 | 86.2 |  |  |
| AAGAAUUUAUAGGAUAUCGAAAGUAUAAUUUAACGAGAAGGAUGAACAUGAGGAUCACCCAUGUGGUAUCAUGG [JL-ex6-3.09] (puzzle: Exclusion 6) |  |  | 232 | apparent KD of MS2 coat protein [3]: 145 nM; apparent KD of MS2 coat protein [4]: 304 nM |
| AAGAAACAUGAGGAUCACCCAUGUGAGGAUAUGAAAAAGAAAAGAAAAGAAAGAAGAUUCAGAAGGCACAAAGG [salish99-ex1_r3_021] (puzzle: Exclusion 1) |  |  | 31.9 | apparent KD of MS2 coat protein [3]: 60.7 nM; apparent KD of MS2 coat protein [4]: 33.9 nM |
| CCCUCGCGAGGAUAUGCAUCCUCCCUCAUUUCUUUCACUACACAUGAGGAUCACCCAUGUAGAAGGCGCUCUCC [Nina] (puzzle: Exclusion 2) |  |  | 41.2 |  |
| UAUAUACAUGAGGAUCACCCAUGUAAGGAUAUGCUUUAUUAUUAUUAUUAUUAUUAUUGCAGAAGGUACAUUAU [LRO-Excl01-05] (Eterna round: R97, puzzle: Exclusion 1) | 38.4 | 33.8 |  |  |
| UUGAGCAGACGGAGAUCCAACAUGAGGAUCACCCAUGUCUCAUAAGCUUUUUGUUCAUCUUAUUGUACCUUGGUGCU [Mat - Sensor v3 - turn-off var 1 - JL Mod - D23] (puzzle: Sensor v3, turn-off variant 1) |  |  | 8.53 | apparent KD of MS2 coat protein [3]: 47 nM; apparent KD of MS2 coat protein [4]: 40.5 nM |
| CGUGUACGAGGAUAUAGAUUAGAUGACAUGAGGAUCACCCAUGUGAUCAAUCUAUUUAGUUUAGAAGGUGUACAUG [JR_Ex5_Sub051] (Eterna round: R97, puzzle: Exclusion 5) | 16.1 | 12.5 |  |  |
| ACGCAUUGCCUUUGGUAGUGCGUAACAUGAGGAUCACCCAUGUAGGAUAUGGUAGGCUUUGCUUACCAGAAGGACAUUAUAAAG [Mat - Exclusion NG 3 - Mod of JL - D10] (Eterna round: R96, puzzle: Exclusion NG 3) | 51.6 | 34.1 |  | apparent KD of MS2 coat protein [2]: 28.4 nM |
| ACUUACUGAGGAUAUACUUAGAUUUACAUGAGGAUCACCCAUGUUCCUCUAUGUAUAUAUGUAGAAGGCAGAAGAA [JL-ex5-4.35 Malcolm mod] (Eterna round: R97, puzzle: Exclusion 5) | 120 | 23.7 |  |  |
| AGUACUAACACGAAAGUGUUAGUACAAUAAGCUUGUGUAACAUGAGGAUCACCCAUGUCCUCAUAAGCUCGUCUUAU [salish99_TOv2_r3_043] (puzzle: Sensor v3, turn-off variant 2) |  |  | 38.3 | apparent KD of MS2 coat protein [3]: 50.6 nM; apparent KD of MS2 coat protein [4]: 51.6 nM |
| AACAGUACAGGAUAUACAUGAGGAUCACCCAUGUGACAAUUAAGUGGCGUACCACAAAGUAGAAGGGUACUGGA [Ruby 86] (Eterna round: R96, puzzle: Exclusion 3) | 206 | 31 |  | apparent KD of MS2 coat protein [2]: 24.3 nM |
| CACCUACAUGAGGAUCACCCAUGUGAGGAUAUGGAACAACAAGAACAUUUACUUGUUCCCAGAAGGCACAUUGG [jun14#1] (Eterna round: R97, puzzle: Exclusion 1) | 64.3 | 130 |  |  |
| GUCAGCUCGUGAGGAUAUACAUGCGUGCUUCGGCACGUAUGAUAGAUCACAUGAGGAUCACCCAUGUAGAAGGUACGAGCUGAC [ENG2/4-C1] (Eterna round: R96, puzzle: Exclusion NG 2) | 13.4 | 14.8 |  | apparent KD of MS2 coat protein [2]: 12.2 nM |
| AGCCUACAUGAGGAUCACCCAUGUCAGGAUAUCUCGCAACGUGUCAAGUUCACGUCGCAGAGAAGGGACUCGGG [Tienberi] (puzzle: Exclusion 1) |  |  | 51.9 |  |
| CCAGCGUAUGUUAGGAUAUGCUGGUCGAAAGAUCAGCAGAAGGAACAUGAGGAUCACCCAUGUGGAAAAGUUGG [Mod of JL 25 - Jieux - Brourd's mod of Exclusion 4] (Eterna round: R97, puzzle: Brourd's mod of Exclusion 4) | 184 | 30.4 |  |  |
| CCACGACAUGAGGAUCACCCAUGUGAGGAUAUGGCCAGUAUGGCGUGAGCUGAAUCAAUCAGAAGGCGCGUGGG [salish99_ex1_r4_056] (Eterna round: R97, puzzle: Exclusion 1) | 276 | 339 |  |  |
| UGAUCAAAUGUCAGGAUAUGCUGUUGUAAUCAACAGCAGAAGGGACAUGAGGAUCACCCAUGUCUUGUCGAUUU [Magic-03] (puzzle: Brourd's mod of Exclusion 4) |  |  | 13.8 |  |

— the supplement of paper PMC9170038
